Data as given in the nanobody polyreactivity screen of Harvey et al. (2022).

Assay: yeast display, Sf9 membrane polyspecificity reagent, FACS + sequencing; frameworks hold sequencing errors
Summary of the method: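 Using colony PCR, genes from sorted yeast display clones were amplified, then sequenced on MiSeq at 2 × 250 and filtered by CDR length. The clones had been stained with 10% biotinylated, detergent-solubilized Sf9 membrane reagent for 1 hour at 4 °C and sorted by FACS into low and high (top ~1%) gates on anti-HA and streptavidin fluorescence. Polyreactivity labels come from the gate of origin.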

Sequence | polyreactivity (PSR sort gate)
QVQLVESGGGLVQAGGSLRLSCAASGSIFSTYAMGWYRQAPGKERELVATINYSGGSTYYADSVKGRFTISRDNAKNTVYLQMNSLKPEDTAVYYCNTGPFVGFDYWGQGTQVTVSS | low polyreactivity
QVQLVESGGGLDQAGGSLRLICDAYGSTFNWNAMGWYRQAPGKERELVAAISSGGSTNYADSVKGRFTISRDNAKNTVYLQMNSLKPEDTAVYYCARQHSRWYSGYKYNYWGQGTQVTVSS | high polyreactivity
QVQHVESRGGLVQAGGSLRLSCAASGRTFVRYAMGWYRQAPGKERELVAAISGDGASTYYADSVKGRFTISRDNAMNTVYLQMNSLKPEDTAVYYCNARSIRRYYYPDYDYWGQGTQVTVSS | high polyreactivity
QVQLVESGGGLVQAGGSLRLSCAASGSTFIANAMGWYRQAPGKEREFVATISRRGGSTYYADSVKGRFTISRDNAKNTVYLQMNSLKPEDTAVYYCAARPLTYIRFRYYYWGQGTQVSVSS | high polyreactivity
QVQLVESGGGLVQAGGSLRLSCTASGFTFFSNAMGWYRQAPVKEREFVASISRSGGRTYYADSVKGRFTISRDNEKNTVYLQMNSLKPEDTAVYYCAADVPYYLHNPRYGYWGQGTQVTVSS | high polyreactivity
QVQLVESGGGLVQAGGSLRLSCAASGGTFDSYAMGWYRQAPGKERELVAAITQSGGRTYYADSVKGRFTISRDNAKNTDYLQMNSLKPEDTAVYYCAAKGITRYGYWGQGTQVTVSS | high polyreactivity
QLQLVESGRGLVQAGGSLRLRCAASGRTFNRYTMGGYRQAPGKERELVAAISRGAGTNYADSVKGRFTISRDNAKYTVYLQMKSLKPEDTAVYYCAAGYEIGYRTGRSGNTAHIYYWGQGTQVTVSS | high polyreactivity
QVQLVESGGGLFQAGGSLRLICAASGSTFRFYAMGWYRQAPAKERELVAVIRSTGSTYYADSVKGRFTISRDNAKNTVYLQMYSLNPDDTAVYYCAAQNAWWSNGRSYDYWGQGTQVTVSS | low polyreactivity
QVQLVESGGGLVQAGGSLRLSCAASASNYERYVMGWNRQAPGKERELVAAISRSGGTTYYADSVKGRFTISRDNAKNTVYLQMNSLKPEDTAVYYCAARVPHDSAGYDYWGQATQVTVSS | high polyreactivity
QVQLVESGGGLVQAGGSLRLSCAASGSIFGRYTMGWYRQAPGKERELVARIRSGGTTYYADSVKGRFTISRDNAKNTVYLQMNSLKPEDTAVYYCAAGRDARDYYSWGQGTQVTVSS | high polyreactivity
QVQLVESGGGLVQAGGSLRLSCADSGFTFVAYAMGWYRQAPGKERELVAVISRGGSTYYADSVKGRFTISRDNAKNTVYLQMNSLKPEDTAVYYCAATYIHSYGKFYYWGQGTQLTVSS | low polyreactivity
QVQLVESGGGLVQGGGSLRLSCAASGRIFTRYTMGWYRPAPGKERELVAASTKRADRTNYADSVKGRFTISRDNAKNTVYLQMNSLKPEDTAVYSCNDAAFSQLRVRYDYWGQGTQVTVSS | low polyreactivity
QVQLVESGGGLVQAGGSLRLSCPASGSTFYYYAMGWYRQAPGKERELVASISDDGSTNYADSVKGRFTISRDNAKNTVYLQMNSLKPEDTAVYYCAAVWWHQFGSAWYQMGYWGQGTQVTVSS | low polyreactivity
QVQLVESGGGLVQAGGSLRLSCAASGRTFYRYAMGWYRQAPGKERELVAAISGSGGRTYYADSVKGRFTISRDNAKNTVYFQMNSLKPEDTAVYYCNAYPHAYTGSTREGDYWGQGTQVTVSS | high polyreactivity
QGQLVESGGGLVQAGGSLRLSCAASGSTFTSSAMGWSRQGPGKERELVAAISRSGGRTYYADSVKGRFTISRDNAKTTVYLQMNSQKPEDTAVYYCAADRSRWGQGTQVTVSS | high polyreactivity
QVQLVESGGGLVQAGGSLRLICDASGIIFYDYAMGWYRQAPGKERELVAAITSSGGSTYYADSVKGRFTISRDNAKNTVYLQMNSLKPEDTAVYYCAAATRGSGRRYDYWGQGTQVTLSS | high polyreactivity
QVQLVESGGGLVQAGGSLRLSCAASGITLLGNAMGWYRQAPGTERELVAAISRRGGSTYYADSVKGRFTISRDNAKNTVYLQMNSLKPEDTAVYYCAADRYTVVYYRIFDYWGQGTQVTVSS | high polyreactivity
